This is an account of results in US8013115B1, “Use of stabilised synthetic compounds in immunoassay” (Bio-Rad Pasteur, priority 1999, dated 2011).

[ ]: non-standard residue; d: D form. Hx = not defined here

Series [1] can be described thus: Linearity of the dilution curves / dilutability, ELISA signal (RLU) versus dilution. As to the method: (§1) The stability of the compounds PEP 5, PEP 9 and PEP 10 was evaluated by ELISA assay, with chemiluminescence reading (signal expressed in Relative Luminescence Units or RLU), with the aid of the automated device Access® from the company Beckman, distributed by Bio-Rad (Marnes la Coquette, France), and then compared with that of a prior art noncyclized reference biepitopic compound (TRP 1116 Ac) analysed in the same manner.
Standard for acceptance of the dilutions: the ratio experimental signal/theoretical signal at a given dilution should be equal to 1.00±0.2, for the compound to be dilutable. The dilutions giving signals of less than 100 000 RLU units should not be taken into account.
Results expressed in signal units (RLU)

The format of series [2] is physicochemical. As to the method: as §1
Series [3] deals with antibodies of the ELISA assay with chemiluminescence reading on the automated device Access (Beckman). Kind of series: ELISA immunoassay, chemiluminescence, Access device; compound diluted 1/40 000. For orientation: ELISA stands for enzyme-linked immunosorbent assay.
For series [4] the target is unchanged. Kind of series: ELISA immunoassay, chemiluminescence, Access device; compound diluted 1/10 000.
Series [5] shares this target. Kind of series: ELISA immunoassay, chemiluminescence, Access device; compound diluted 1/300 000.
Series [6] has the same target. Kind of series: ELISA immunoassay, chemiluminescence, Access device; compound diluted 1/20 000.
Series [7] shares this target. Kind of series: ELISA immunoassay, chemiluminescence, Access device; compound diluted 1/50 000.
For series [8] the target is unchanged. Kind of series: ELISA immunoassay, chemiluminescence, Access device; compound diluted 1/100 000.

On to “Ac-GSSNYRAYA-(TEPH)-AKK-Hx-PLELAGLG-(FAEL)-QDLCRQ-NH2 (SEQ ID NO: 6) (Ac-GSSNYRAYATEPHAKK[Hx]PLELAGLGFAELQDLCRQ-NH2; not fully specified; printed as Ac-GSSNYRAYA-(TEPH)-AKK-Hx-PLELAGLG-(FAEL)-QDLCRQ-NH2; reading uncertain; also: TEPH, Hx, FAEL described as non-natural linkers) [TRP 1116 Ac]”, for which the Experimental signal in series [1] (dilution 1/10 000) was 11 039 697 RLU; in series [1] (dilution 1/20 000), 3 779 387 RLU; in series [1] (dilution 1/40 000) it was 1 573 457 RLU; in series [1] (dilution 1/50 000), 1 125 417 RLU; in series [1] (dilution 1/100 000), 471 714 RLU; in series [1] (dilution 1/300 000), 132 054 RLU. Besides, in series [2], the “Stability ratio signal at DO + 24 H/signal at DO” value is given as 0.77.

B1: peptide TRP 1116 Ac: Ac-…-(TEPH)-AKK-Hx-PLELAGLG-(FAEL)-QDLCRQ-NH2 (peptide)
peptide: Ac-GSSNYRAYATEPHAKK[Hx]PLELAGLGFAELQDLCRQ-NH2
modifications: reading uncertain; also: printed as Ac-GSSNYRAYA-(TEPH)-AKK-Hx-PLELAGLG-(FAEL)-QDLCRQ-NH2
With B1, the Experimental signal (RLU) in series [3] was determined as 1.57e+06 RLU; in series [4], 1.1e+07 RLU; in series [5], 132000 RLU; in series [6], 3.78e+06 RLU; in series [7] it was 1.13e+06 RLU; in series [8], 472000 RLU.
